Tests used:
[1] = substrate: NC(=O)CC[C@H](N)C(=O)O; experiment: Substrate Km determination, Lineweaver-Burk plot (GFAT-alpha); type: biochemical, human; conditions: other: extracts from transfected SF9 insect cells, other substrate at saturating levels
Method: (§1) FIG. 3 illustrates the effect of varying concentrations of the substrates glutamine and fructose 6-phosphate on the enzyme activity of GFAT-alpha and GFAT-beta. FIG. 3A is a graph illustrating incubation with 10 μl glutamine 200 mM+10 μl fructose 6-phosphate 3.125, 6.25, 12.5, 25, 50, 100, and 200 mM. FIG. 3B is a graph illustrating incubation with 10 μl fructose 6-phosphate 200 mM+10 μl glutamine 3.125, 6.25, 12.5, 25, 50, 100, and 200 mM. 10 μl of GFAT-alpha and 5 μl of GFAT-beta extracts from transfected SF9 insect cells are incubated with 1) 10 μl glutamine 200 mM+10 μl fructose 6-phosphate 3.125, 6.25, 12.5, 25, 50, 100, and 200 mM, and 2) 10 μl fructose 6-phosphate 200 mM+10 μl glutamine 3.125, 6.25, 12.5, 25, 50, 100, and 200 mM in an incubation media containing 10 μl PBS 10×, 10 μl EDTA 50 mM, 10 μl, DTT 10 mM and water to 100 μl. The plate is sealed with a Costar plate sealer and incubated for 60 minutes at 37° C. by floating on a water bath. Additional incubation mixture is kept on ice to add to standard and control samples. […] After a 20-minute incubation at 37° C., the OD is determined for each well at 585 nm. […]
(§2) FIG. 3C is a table illustrating the Km values of the substrates for the GFAT-alpha and GFAT-beta enzymes calculated from the data generated in FIGS. 3A and 3B. […]

[2] = substrate: O=C(CO)[C@@H](O)[C@H](O)[C@H](O)COP(=O)(O)O; experiment: as above; type: biochemical, human; conditions: other: extracts from transfected SF9 insect cells, other substrate at saturating levels
Method: as §1, §2

B1: GFAT-alpha (Homo sapiens; I57T) (protein)
chain: MCGIFAYLNYHVPRTRREILETLIKGLQRLEYRGYDSAGVGFDGGNDKDWEANACKTQLIKKKGKVKALDEEVHKQQDMDLDIEFDVHLGIAHTRWATHGEPSPVNSHPQRSDKNNEFIVIHNGIITNYKDLKKFLESKGYDFESETDTETIAKLVKYMYDNRESQDTSFTTLVERVIQQLEGAFALVFKSVHFPGQAVGTRRGSPLLIGVRSEHKLSTDHIPILYRTGKDKKGSCNLSRVDSTTCLFPVEEKAVEYYFASDASAVIEHTNRVIFLEDDDVAAVVDGRLSIHRIKRTAGDHPGRAVQTLQMELQQIMKGNFSSFMQKEIFEQPESVVNTMRGRVNFDDYTVNLGGLKDHIKEIQRCRRLILIACGTSYHAGVATRQVLEELTELPVMVELASDFLDRNTPVFRDDVCFFLSQSGETADTLMGLRYCKERGALTVGITNTVGSSISRETDCGVHINAGPEIGVASTKAYTSQFVSLVMFALMMCDDRISMQERRKEIMLGLKRLPDLIKEVLSMDDEIQKLATELYHQKSVLIMGRGYHYATCLEGALKIKEITYMHSEGILAGELKHGPLALVDKLMPVIMIIMRDHTYAKCQNALQQVVARQGRPVVICDKEDTETIKNTKRTIKVPHSVDCLQGILSVIPLQLLAFHLAVLRGYDVDFPRNLAKSVTVE
notes: made in house; host or cells: SF9 insect cells (sonicated, centrifuged cell extract)
Km [1]: 1490 µM
Km [2]: 1850 µM

— patent publication US20050032145A1, “Methods for measuring activity of glutamine:fructose 6-phosphate amidotransferase and activity of inhibitors thereof” (priority 2002, published 2005)
